In article PMC7272391:
Several values for one entry are separate records, joined by “and”; a condition that tells them apart may be missing. Identical values can stand only once.

Tests used:
[1] = biological target: human Fc-gamma receptor I (human) (UniProt P12314); assay: SPR; BIAcore chip with immobilised anti-His antibody capturing His-tagged human FcγRI; antibody diluted >5000-fold in assay buffer and injected at 0.125-4.0 μg/mL; 1:1 Langmuir binding model
[2] = biological target: human Fc-gamma receptor IIIa(F) (human) (UniProt P08637); assay: SPR; BIAcore chip with immobilised anti-His antibody capturing His-tagged human FcγRIIa, IIb, IIIa(F), IIIa(V), IIIbNA1 or IIIbNA2; antibody exchanged into assay buffer and injected at 0.125-4.0 mg/mL; steady state affinity model
[3] = biological target: human Fc-gamma receptor IIa (human) (UniProt P12318); assay: as above
[4] = biological target: human Fc-gamma receptor IIb (human) (UniProt P31994); assay: as above
[5] = biological target: human neonatal Fc receptor (human) (UniProt P55899); assay: SPR; BIAcore chip with immobilised anti-β2-microglobulin antibody capturing human FcRn; antibody diluted >5000-fold in assay buffer and injected at 0.15625-2.5 μg/mL; bivalent analyte model
UniProt P55899, sequence (P55899 24-365, chain 1 of 2): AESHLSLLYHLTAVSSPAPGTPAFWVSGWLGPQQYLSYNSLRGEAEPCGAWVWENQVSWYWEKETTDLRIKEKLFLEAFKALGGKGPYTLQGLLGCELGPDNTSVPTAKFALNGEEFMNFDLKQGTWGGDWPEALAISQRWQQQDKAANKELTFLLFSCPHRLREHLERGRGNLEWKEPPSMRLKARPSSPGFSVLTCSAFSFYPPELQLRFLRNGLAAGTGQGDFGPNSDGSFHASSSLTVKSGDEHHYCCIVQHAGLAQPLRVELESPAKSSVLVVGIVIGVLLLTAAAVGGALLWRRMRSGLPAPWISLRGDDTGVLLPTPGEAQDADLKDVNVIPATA
UniProt P55899, sequence (P61769 21-119, chain 2 of 2, further chain): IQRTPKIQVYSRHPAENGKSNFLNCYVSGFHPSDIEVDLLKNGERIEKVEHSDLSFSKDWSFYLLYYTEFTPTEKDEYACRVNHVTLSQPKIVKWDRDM

UniProt P12314, sequence (P12314 16-374): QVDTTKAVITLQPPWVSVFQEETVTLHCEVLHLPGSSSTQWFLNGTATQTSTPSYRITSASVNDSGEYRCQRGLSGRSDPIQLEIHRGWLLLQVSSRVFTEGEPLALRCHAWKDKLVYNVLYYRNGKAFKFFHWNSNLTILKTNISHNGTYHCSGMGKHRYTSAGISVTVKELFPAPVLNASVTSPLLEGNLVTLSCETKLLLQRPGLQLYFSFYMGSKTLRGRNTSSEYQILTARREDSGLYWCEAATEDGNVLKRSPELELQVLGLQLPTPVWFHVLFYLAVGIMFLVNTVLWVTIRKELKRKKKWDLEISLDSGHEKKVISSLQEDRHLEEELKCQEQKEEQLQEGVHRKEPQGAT
UniProt P31994, sequence (P31994 43-310): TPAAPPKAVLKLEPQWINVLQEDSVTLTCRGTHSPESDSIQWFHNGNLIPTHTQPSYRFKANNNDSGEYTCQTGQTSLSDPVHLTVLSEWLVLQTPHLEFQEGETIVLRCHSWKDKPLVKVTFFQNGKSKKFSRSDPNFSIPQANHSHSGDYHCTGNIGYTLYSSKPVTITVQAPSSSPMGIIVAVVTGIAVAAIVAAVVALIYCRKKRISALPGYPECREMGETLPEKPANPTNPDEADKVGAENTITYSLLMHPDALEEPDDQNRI
UniProt P12318, sequence (P12318 34-317): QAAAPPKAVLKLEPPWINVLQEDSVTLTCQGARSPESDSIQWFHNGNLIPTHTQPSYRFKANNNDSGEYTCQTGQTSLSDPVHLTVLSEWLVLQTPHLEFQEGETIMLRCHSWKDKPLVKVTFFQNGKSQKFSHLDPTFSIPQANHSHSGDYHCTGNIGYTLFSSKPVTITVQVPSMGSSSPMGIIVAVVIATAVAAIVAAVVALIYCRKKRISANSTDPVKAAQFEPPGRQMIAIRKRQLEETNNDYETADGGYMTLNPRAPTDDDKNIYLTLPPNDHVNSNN
UniProt P08637, sequence (P08637 17-254): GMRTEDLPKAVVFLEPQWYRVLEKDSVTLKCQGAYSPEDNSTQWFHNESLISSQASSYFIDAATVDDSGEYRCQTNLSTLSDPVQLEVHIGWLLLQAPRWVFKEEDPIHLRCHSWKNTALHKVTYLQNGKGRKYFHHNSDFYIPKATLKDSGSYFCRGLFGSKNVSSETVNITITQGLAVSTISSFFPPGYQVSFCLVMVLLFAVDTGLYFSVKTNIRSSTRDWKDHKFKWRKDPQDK

FKB327 (antibody)
Kd [1]: 0.000382 µM and 0.000436 µM | Kd [2]: 1 µM | Kd [3]: 7.65 µM and 8.47 µM | Kd [4]: 13.8 µM and 15.7 µM | Kd [5]: 0.0664 µM and 0.0759 µM
